± gives the standard deviation of the averaged measurements.
test system: Saccharomyces cerevisiae; test: protein stability index of tFT-peptide fusion (C-terminal peptide) (PSI (0-1 scale)); higher = more stable (slower turnover); details: genetic background: wild type; temperature: 30 C
Protocol: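 Multiplexed protein stability (MPS) profiling in S. cerevisiae. Random 12-aa peptides (tFT-X12 library) are fused to the C-terminus of a sfGFP-mCherry tandem fluorescent timer, after mCherry and a GGGS linker. Cells are FACS-sorted into 8 mCherry/sfGFP bins and deep-sequenced. The protein stability index (PSI) is the read-weighted bin average, scaled from 0 (unstable) to 1 (stable). Only peptides with >10 reads are reported; cells were grown at 30 °C in SC-His with glucose.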
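Note: PSI is a weighted mean of sequencing reads over stability bins, variants kept only with over 10 reads, mCherry proximal and sfGFP distal, peptide attached via GGGS linker.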

Row | Sequence | protein stability index
1 | KIRDECFQPVNR | 0.674 ± 0.059
2 | KIYLKDKKKSKK | 0.668 ± 0.057
3 | KKAKRKHLLGRA | 0.66 ± 0.017
4 | KKDTTRGENYKP | 0.767 ± 0.016
5 | KKEGKTKSIRKK | 0.726 ± 0.013
6 | KKEKRQQEKIIK | 0.671 ± 0.04
7 | KKEQKKKNKNDR | 0.669 ± 0.025
8 | KKGREKKQQKER | 0.717 ± 0.015
9 | KKHKKEDNKEKK | 0.708 ± 0.051
10 | KKIKKKKQTKRK | 0.662 ± 0.039
11 | KKIKKKQTTLKR | 0.665 ± 0.081
12 | KKILNKEKSKMA | 0.7181 ± 0.0049
13 | KKIRSMRREGQR | 0.714 ± 0.08
14 | KKKEHQKIKNER | 0.675 ± 0.032
15 | KKKHIRTEKDNK | 0.704 ± 0.014
16 | KKKIINEKKKKD | 0.70019 ± 0.00067
17 | KKKKAKKIKKQK | 0.675 ± 0.059
18 | KKKKEEKKKSKK | 0.644 ± 0.041
19 | KKKKIKIKKKKI | 0.763 ± 0.043
20 | KKKKIKKKEKNK | 0.716 ± 0.079
21 | KKKKIKKKKINI | 0.597 ± 0.0067
22 | KKKKKKKETKKR | 0.661 ± 0.047
23 | KKKKKKKKKKKR | 0.633 ± 0.009
24 | KKKKKKKKKKPK | 0.611 ± 0.022
25 | KKKKKKKKQEQN | 0.63076 ± 3e-05

Row | Sequence | protein stability index
26 | KKKKKKKKRNRK | 0.666 ± 0.018
27 | KKKKKKKSTKRN | 0.713 ± 0.037
28 | KKKKKKNTHNTK | 0.646 ± 0.07
29 | KKKKKKRYRKKI | 0.605 ± 0.024
30 | KKKKKNNKRQKQ | 0.593 ± 0.089
31 | KKKKLKQKKNKQ | 0.655 ± 0.008
32 | KKKKNNKKKQRT | 0.731 ± 0.027
33 | KKKKQIKKTKKK | 0.701 ± 0.047
34 | KKKKQKKRETTK | 0.636 ± 0.012
35 | KKKKQKNNRKKP | 0.574 ± 0.059
36 | KKKKRKGKRQPR | 0.671 ± 0.041
37 | KKKKRKKKKINI | 0.611 ± 0.038
38 | KKKKRQNIQNKK | 0.692 ± 0.054
39 | KKKLEIKIEKRE | 0.644 ± 0.042
40 | KKKNKKEDKRKK | 0.6942 ± 0.0031
41 | KKKNKKKQKEEK | 0.693 ± 0.012
42 | KKKNKKKRKGRK | 0.684 ± 0.037
43 | KKKNKKNKKKAE | 0.6915 ± 0.0047
44 | KKKQNVKSNEVG | 0.651 ± 0.096
45 | KKKRKEEIKKKK | 0.742 ± 0.012
46 | KKKRKKKQKIRK | 0.731 ± 0.08
47 | KKKTIKKTIKNQ | 0.702 ± 0.031
48 | KKKTKEKTRKKK | 0.702 ± 0.016
49 | KKKTKRKQKIET | 0.727 ± 0.022
50 | KKNKKKKIKMNK | 0.713 ± 0.038

Row | Sequence | protein stability index
51 | KKNKKKRRAQKE | 0.669 ± 0.044
52 | KKNKKPKKQNNK | 0.681 ± 0.063
53 | KKNKNLTYKRMI | 0.716 ± 0.029
54 | KKNKRKLKKKKK | 0.72 ± 0.087
55 | KKNLHEQIGEAI | 0.687 ± 0.051
56 | KKNTKKKQVNQE | 0.747 ± 0.05
57 | KKPVNINNKLSA | 0.647 ± 0.017
58 | KKQKKKPQNKKK | 0.954 ± 0.066
59 | KKQKKWQSNTIR | 0.696 ± 0.034
60 | KKQKRRKGEREK | 0.637 ± 0.0023
61 | KKQQKKKNKNDR | 0.651 ± 0.017
62 | KKRKVKKKKPNG | 0.581 ± 0.033
63 | KKRYYNKKINEK | 0.699 ± 0.046
64 | KKSDTKKKGQNK | 0.673 ± 0.048
65 | KKSGTRDKNIQH | 0.676 ± 0.046
66 | KKSKKHEKKKNK | 0.711 ± 0.065
67 | KKTGITTNIKRW | 0.741 ± 0.23
68 | KKTITNNCPSYD | 0.6638 ± 0.0066
69 | KKTKKKKNKKQE | 0.716 ± 0.081
70 | KKTTKRKKEKQK | 0.633 ± 0.07
71 | KKVDLEDQRKER | 0.745 ± 0.008
72 | KLILGGSRGIMD | 0.646 ± 0.014
73 | KLNDTLKDRQNK | 0.67 ± 0.037
74 | KLNVRATPPPTI | 0.7 ± 0.055
75 | KLQKKTRQKKKK | 0.653 ± 0.035

Row | Sequence | protein stability index
76 | KLRETQIHQGKT | 0.698 ± 0.021
77 | KLVGSLLSPDSE | 0.724 ± 0.015
78 | KMGKIQKVKGIK | 0.731 ± 0.012
79 | KMTSLSRVDIEE | 0.668 ± 0.087
80 | KMYILKGKIRKI | 0.612 ± 0.057
81 | KNCARIKERKDV | 0.627 ± 0.03
82 | KNEGYHNVTMNL | 0.707 ± 0.017
83 | KNKGKHKGGKYR | 0.721 ± 0.059
84 | KNKIKITKRKRK | 0.734 ± 0.0099
85 | KNKKKNQIENRT | 0.692 ± 0.0014
86 | KNQKTTKKKKKI | 0.543 ± 0.019
87 | KNSKKKKLKIER | 0.804 ± 0.27
88 | KNSLIKTKESRK | 0.6947 ± 0.0021
89 | KNVILKKNKNWL | 0.6746 ± 0.0063
90 | KPLPSHYPGRTP | 0.658 ± 0.016
91 | KPRSRMHRIVRI | 0.722 ± 0.027
92 | KPRTLRPDQNAT | 0.689 ± 0.0087
93 | KQDIETDKKEEG | 0.666 ± 0.13
94 | KQFGIHSRVFLM | 0.547 ± 0.021
95 | KQKNSNKKTQRI | 0.712 ± 0.021
96 | KQKTSRGTGQSL | 0.683 ± 0.1
97 | KQNRKEKVQRNR | 0.709 ± 0.054
98 | KQQTPVQNKDLR | 0.71399 ± 0.0006
99 | KQSNRYPCIHRS | 0.705 ± 0.048
100 | KRCTFCGGGWVM | 0.7276 ± 0.00082

Row | Sequence | protein stability index
101 | KREGEGLDWGEV | 0.7089 ± 0.0014
102 | KREQGPRPRACR | 0.617 ± 0.036
103 | KRGKRTEKDKET | 0.652 ± 0.071
104 | KRKEDSILVISC | 0.662 ± 0.029
105 | KRKERKGEKKRR | 0.685 ± 0.033
106 | KRKKKENNKIKI | 0.756 ± 0.1
107 | KRKKKRKQKGKQ | 0.722 ± 0.036
108 | KRKKNKKRKQNE | 0.656 ± 0.026
109 | KRKKTRNKNGKG | 0.627 ± 0.073
110 | KRKPEHKSAAEE | 0.669 ± 0.038
111 | KRKRAVQYLMQP | 0.615 ± 0.042
112 | KRLKKKKQSGGK | 0.71 ± 0.03
113 | KRRSQKKKRIMD | 0.6968 ± 0.0043
114 | KRTKKKTKDERK | 0.644 ± 0.044
115 | KRYSVPLTTVVD | 0.7165 ± 0.0035
116 | KSSEIKEKKTKK | 0.7151 ± 0.0011
117 | KSSNIINQKRIT | 0.66 ± 0.056
118 | KSSTLRKIKRGK | 0.716 ± 0.03
119 | KTCENKKKALRR | 0.6923 ± 0.0016
120 | KTGRPSRRGSTT | 0.704 ± 0.036
121 | KTGVRAVSLTGS | 0.696 ± 0.038
122 | KTHKKKKKNKNF | 0.525 ± 0.012
123 | KTINEKKKRIEQ | 0.713 ± 0.055
124 | KTIQDNNYDGIW | 0.766 ± 0.25
125 | KTKKNKKKKINK | 0.692 ± 0.075

Row | Sequence | protein stability index
126 | KTKRKKKRRRRE | 0.705 ± 0.067
127 | KTQKKPNNRKNI | 0.682 ± 0.04
128 | KTRHVGSDNQGL | 0.663 ± 0.043
129 | KVAECGYGTSWV | 0.724 ± 0.013
130 | KVCESRQVEYFR | 0.634 ± 0.088
131 | KVCVLSPDSCGL | 0.741 ± 0.033
132 | KVGLGVNSLFTG | 0.745 ± 0.18
133 | KVKGKSISKINH | 0.645 ± 0.055
134 | KVLTTISRAINK | 0.604 ± 0.012
135 | KVRDTFRDFGLM | 0.673 ± 0.063
136 | KYMPKDSLKNTI | 0.622 ± 0.01
137 | KYPRPNSYFVPI | 0.717 ± 0.023
138 | LAARTKAQARHN | 0.652 ± 0.04
139 | LACVYEVIPGPS | 0.677 ± 0.047
140 | LACWAGVLGWGG | 0.732 ± 0.022
141 | LAESTSYNQRRP | 0.701 ± 0.06
142 | LAGGRCGCGTHD | 0.684 ± 0.042
143 | LAGLAVASVRRE | 0.683 ± 0.013
144 | LAGRPSTTRAFR | 0.59 ± 0.027
145 | LALFPDPSSIIL | 0.7765 ± 0.0075
146 | LALHWVESRFKH | 0.71 ± 0.06
147 | LALSVRFFSVLF | 0.587 ± 0.036
148 | LALVGGACVGRV | 0.65 ± 0.044
149 | LANGACLLRLNF | 0.54 ± 0.017
150 | LAPLALPLPPPT | 0.832 ± 0.18

Row | Sequence | protein stability index
151 | LAPPPLGNSSRP | 0.704 ± 0.049
152 | LARGGASIGGES | 0.701 ± 0.015
153 | LARPPPPSNHSP | 0.695 ± 0.0094
154 | LASCAFQFLASC | 0.691 ± 0.098
155 | LASGSVSCFWSG | 0.71 ± 0.021
156 | LASSGQSWLVVF | 0.563 ± 0.011
157 | LASSSPPTRPPH | 0.702 ± 0.048
158 | LASVSNFLASGK | 0.72 ± 0.058
159 | LAVNGEIERVCD | 0.636 ± 0.11
160 | LAWALGESSPIG | 0.737 ± 0.044
161 | LAYCGSTYVSRH | 0.699 ± 0.022
162 | LCANDRGVAALA | 0.683 ± 0.046
163 | LCCSFGLFTLFW | 0.711 ± 0.042
164 | LCHCLSLLFSFL | 0.581 ± 0.015
165 | LCLFPLVTPPPA | 0.607 ± 0.029
166 | LCLGFDGAFPLF | 0.725 ± 0.014
167 | LCPTGAPLYFSL | 0.64 ± 0.093
168 | LCRSSIILTLLL | 0.586 ± 0.057
169 | LCSPGPLPPSYF | 0.705 ± 0.045
170 | LCVGVGAAIRLW | 0.598 ± 0.039
171 | LDCVPRTHCILS | 0.664 ± 0.074
172 | LDEFFIKTSANM | 0.652 ± 0.088
173 | LDGSQDGANRRT | 0.728 ± 0.095
174 | LDLCTVIRFVGI | 0.723 ± 0.029
175 | LDRDTSCYMLDF | 0.718 ± 0.03

Row | Sequence | protein stability index
176 | LDSGQALLSIPI | 0.643 ± 0.12
177 | LEGEESISQMNE | 0.664 ± 0.043
178 | LEQAGFWWPKGL | 0.764 ± 0.0087
179 | LEVLGVPQLIRS | 0.534 ± 0.07
180 | LEWHRPLCPPLF | 0.734 ± 0.075
181 | LFCGALSTRLAR | 0.751 ± 0.081
182 | LFCVARARLGCW | 0.768 ± 0.026
183 | LFERSFSSHPVL | 0.769 ± 0.13
184 | LFFLPSVLPFHC | 0.636 ± 0.025
185 | LFFSLLCSSFGS | 0.708 ± 0.022
186 | LFGFSPAPVSFG | 0.733 ± 0.073
187 | LFHPPVCPVFLD | 0.758 ± 0.037
188 | LFIGFFGIECFI | 0.5798 ± 0.0037
189 | LFILSLGEYSLP | 0.673 ± 0.066
190 | LFKRTWRVEGFG | 0.705 ± 0.094
191 | LFLDSTSTLPAP | 0.662 ± 0.028
192 | LFPFPSPLPPPL | 0.766 ± 0.0092
193 | LFPPFPPFSFSP | 0.798 ± 0.045
194 | LFPPRVSLPSHT | 0.663 ± 0.13
195 | LFPSPFVASFPP | 0.765 ± 0.055
196 | LFSCLHCLFSCQ | 0.616 ± 0.091

From the supplement of paper PMC10724198
